Experiment: soluble on expression in E. coli; label from the status in PepcDB or PDB records

Sequence | soluble on expression in E. coli
MGSDKIHHHHHHACCQGAASSGNAGKNASRVRIASNDSAKLVPDKALNDASCVLAGLPVDKASGKLYALTRTKEWKNHARYMDQIWNVFRQTAPRLVAFSQTELEDINTRCHTLFYPFGGPDFLFANAFFPEMDTYVLIGLEPAGTAPKVKHPSAETYRLYQNAVSNVLNLSFFNDMDKELANDTIDGVVPIYSLLMARGNRKIVSIQEVWLSETGDLFERKEGDTIRNTCSAGMEVRFFRPGASRLQTLYYFCTDISNEGLQANRPLQAFMDRFDAETTATFVKSASYLMHEPAFSRIRETILQKSSAVVQDDSSIPLSCFDPEVWSVTLYGTFYKPISTFSQYLQPQLRDAYQLGDPNPLNFRIGYARQSNLQVARRK | not soluble
AHHHHHHGSIDLILLAGKLKRIPRMGWLIKGVPNPESVADHSYRVAFITLLLAEELKKKGVEIDVEKALKIAIIHDLGEAIITDLPLSAQKYLNKEEAEAKALKDVLPEYTELFEEYSKALTLEGQLVKIADKLDMIIQAYEYELSGAKNLSEFWNALEDLEKLEISRYLREIIEEVRRLKDDH | soluble
MHILDIWHRRNSRSYIAHLRSLGIRIGDGCIFRDPLTTRIDVSRPALVSIGSNVDMNTYFQILTHDWASFVFRNKYHDFVNSSGRVEIGSNIYIGTNVIVLRGVTIGDNCVIGAGSVVTHDIPANSVAVGAPCRVVCSLEHHHHHH | not soluble
MGLGSSKRKEEPPHKSEPKTVGRVKRAGARPDEMIAKYAEVLKTRGILPEYFLVHEAKSSQYIDEDGDVANEFYQETMSDGEKRRLCRLMKNLRPKGKERYAIPRLKHDIPVVIWEVQQPQET | not soluble
MGSDKIHHHHHHMKTARLIYNPTSGREQIRKSLAYILERLELAGYETSTHATTGEGSATEAARLAGERRHDLVIAAGGDGTIYEVVNGLAGLEKRPTLGLIPAGTTNDFARALNIPRDIEKACDILIEGHTKPVDVGKAGDHYFINIAAGGTLTELTYEVPSKLKTVVGQLAYYIKGLEKLPQISPTDVRIEYDGKLFEGEIMMFLVSNTNSVGGFERLAPNASLRDGMFDFIIVKKTSFPEFLHLAGLALRGEHIKHPKVLYVQANRIKVQAEKSMQLNFDGEYGGLLPAEFVNLYQHFQMLCPKD | not soluble
VLSRIQFVSRFGSNLVHIEGVKGSGKSWLAQRYLEKWCDDADQVLLMCHPNQSIQQQRGIILKQVVRDPLFNESDSVVDSVGRMLAGEKCNLVLAIDDAHLLSSELLSELWLLVQKAQSAPNWQINILLFAEKGKLTQTLSQMSYGQDNKPVDIDINP | not soluble
MTAAIAAPAYDAIVIGSGIGGLVTATQLAAKGAKVLVLERYLIPGGSAGWFEREGYRFDFGASIIFGFGDPGTTNLLTPPLADVGQALETIPDPVQIHYHLPNQLDLKVHRDYEAFLQELIAQFPQEAEGIRRFYDECWQVFNCLNAMPLLSLEEPKYLFNVFLQHPLACLGLVKYLPQNVGDIARRYIRNPDLLKFIDMECYCWSVVPATMTPMINAGMVFSDRHYGGINYPKGGVGRIAEKLVAGLEAKGSSIRYKARVTRILTEKGRAIGVELADGEKLYAKRIISNATRWNTFGELLPPQQEPAQEQRWQQRYRQSPSFLSLHLGVKADLLPAGTECHHILLENWDELEVEQGTIFVSIPTLLDPSLAPPDRHIIHTFTPSWLGEWDNLSPSEYRDRKAAAAAKLIQRLEAIFPGLSSAIDYQEVGTPRTHRRFLGRQNGTYGPIPRRKLAGLLGMPFNRTAIPGLYCVGDSTFPGQGLNAVAFSGYACGHRVAADLGLVLEHHHHHH | not soluble
MSLNSLLLVSRIYQQTCIDDLAQLANEVKASFVRLVNEDANSHMIGTAMSTIGRAFTQRIIELVEAELGAAPLPYCFVAFGSMGRDEQLIVTDQDNALILDDRYDVQQHGAYFAQFAELVCRGLDRCGYPLCDGEIMASNPKWRMTRKEWETCFADWIDNPNPQALLNASIFFDLDGVYGRTKWAEQLSGFIVRRARRNQRFLACLARNALNRTPPLGFFKNFVMEKDGRHNNSINLKRRGTAPLADLIRVHALAAGSRAKNSFERLDDVIEAGLLPQGKGKDLRDALEFIAMVRIRHQAIDVEQEREADNSIEPEHLSDFERRNLKDAFQILSNGQNYLKYRYQANQHFKEGHHHHHH | soluble
MGYRNTGSPPPPQIGGLYGDRNPNPYGTVNLGGGSPYPGGLEEYNIRPAAPFSGLVGGSRSGYYGSTVGMRRGAVVPPMSSRKTKIPQTEYPPDYASNDLMNSFNGATNSAIPSLRELATYASRYGPAYLRERFGSHDSQLERMLYGGSGPQIPSRGGGIPIDYNMNIASNHWNRGIGSPMGIMSRDVDSYQHDDAAKANKKTTTGSPSTTSTRKPRKARKPTKKTVAAAPSSSSNTSTTAKPAKTVKTSEKSA | not soluble
MNVSTSTFQTRRRRLKKVEEEENAATLQLGQEFQLKQINHQGEEEELIALNLSEARLVIKEALVERRRAFKRSQKKHKKKHLKHENANDETTAVEDEDDDLDEDDVNADDDDFMHSETREKELESIDVLLEQTTGGNNKDLKNTMQYLTNFSRFRDQETVGAVIQLLKSTGLHPFEVAQLGSLACDTADEAKTLIPSLNNKISDDELERILKELSNLETLY | soluble
MSDLTKLDWNHIRAFLKTAETGSLSAAARRLDLTQPTLSRQVAALEQDLGVMLFERIGRTLVLTDAGADLLEHTRAMGAAADRVALAASGQAQSIEGRVRITASDVMSAYVLPEALRRIRAQAPRLEIEVIAANDIRDLMRREADIAIRHVRPEQPDLIARLVREATAHFYAASGYLDRRGRPVTKDDLATHDFIAFGDVTEMLGHLTPLGLPLTRANFRLGSQSGVVAWDYVRQGFGIAPMDDGVAAATPGVERVLPQMEPLLFPVWLTAHRELHTSRRIRLVFDILAEYLTG | not soluble
MSLKKSLATIRAEERNYFQSPKWFCDFVEKPIQGLEREEGVHRRDPSSIIKVDNLYYVYYTKSYGPHVGFNTGDLNAKVFPWDYSEIWVATSEDGYVWEEKGVAVTRGEAGRYDDRSVFTVEVMKYDGKYYLVYQTVQHPYVNRSFENIAIAWSDNPLGPFQKSDEPILRPTGDGIWDTEEDNRFLVKKKGSFDSHKVHDPLLFHYRDKFYLYYKGEPMGEEIFMGGRETKWGVAIADSIEGPYIRSEYNPITNSGHETCLWQYKEGMAAFLRTDGVEKNTLQFAEDGINFQIMSVIKWGPEACGPYRPDEIITDDPLEGMKWGMSHSLGKPGCPYGCLVRFDINTKQRDIYAARKKYEEGHHHHHH | soluble
MSLSHSEAGQAASVRRVLAVIPARGGSKGVPAKNLLPVGGVPLVARAVRECRATRLVTDVVVSTDDHAIAAAAREAGAEVVLRPAAIAGDTATSEAAVLHAMDTHEALHGAAVDVVLLVQCTSPFIVREDVDGVVHAIVGKGADTALTVAPFHGFVWRDADDAPGALGAERAAVEGGTDTLVTGTATSGGYGINHDKSFRPRRQDRPQDLLETGAVYGMDATGFREARHRFFGRTELVRTDPARVLEIDDPHDLARARALAPLFDANRPGALPTAEDIDAVVLDFDGTQTDDRVLIDSDGREFVSVHRGDGLGIAALRKSGLTMLILSTEQNPVVAARARKLKIPVLHGIDRKDLALKQWCEEQGIAPERVLYVGNDVNDLPCFALVGWPVAVASAHDVVRGAARAVTTVPGGDGAIREIASWILGPSLDSLDKEGHHHHHH | soluble
MGSDKIHHHHHHMNYTDTLKSVDLVLATGEVPLIIGESGIGKTALAKELAQQNQWSLVIINGNLLKEGEIGGLPTIESYVFSGPEAVNPLAATAAKTVGNEQGILQEKKSTVYAVHHKLREIDEAIARGQTVLLFIDEINRCEHTVQQELMNLILNREINGYILPEGVKILAAMNPSSKYGSDFDYQVVDMDAAQENRFVWLFMKPDHKQWIDWAIGAGIEPKVIEFISTFPDYLHKINEDDLRATPRSYERISSSYKIYQENKDSIPRSVFLNVVKGNVGRVIAEEFVNFAEADYSPLIAYDDIFSGTSLPESLRDKVKEESHTRLYLSARNILQTLESHLSKTPANAPDHAQSSMDRLVAFLKLYPVDLKIGIMKDIRSSYPEIYRQAIENEGFVDSYFESYGSLR | not soluble
MGHHHHHHSHMAICQFFLQGRCRFGDRCWNEHPGARGAGGGRQQPQQQPSGNNRRGWNTTSQRYSNVIQPSSFSKSTPWGGSRDQEKPYFSSFDSGASTNRKEGFGLSENPFASLSPDEQKDEKKLLEGIVKDMEVWESSGQWMFSVYSPVKKKPNISGFTDISPEELRLEYHNFLTSNNLQSYLNSVQRLINQWRNRVNELKSLNISTKVALKCLWKIYTHLSPKIYGPDCAL | not soluble
MGSDKIHHHHHHMTTKKFRMEDVGLSKLKVEKNPKDVKQTEWKSVLPNEVYRVARESGTETPHTGGFNDHFEKGRYVCLCCGSELFNSDAKFWAGCGWPAFSESVGQDANIVRIVDRSHGMHRTEVRCKTCDAHLGHVFNDGPKETTGERYCINSVCMAFEKKD | not soluble
MAHHHHHHMAECSGVADDDTTKKLLLEGDSALRQGRSYYQEALAKYTEALTHNPNSIRGLYSRAELLSMLRRRDACMSDLDQLLKLDSKHQRGLVLRSALYSQAGQLKEAVRDVEKLVEVMSEGGKAAKVQEYKAKLQQLRRYAEVWIPLQLKLQAAKQGAVTLSRDEQCACVGFLHDMIREFAKDNAGLRLQRAECALACGDNQAASEELKYVVQREPQNLDAVALGARALRALGALEQARRELRRCLSLDPEFALCAQLHKLVREQIRVTQGVEKALEEKDYGKVLKLIEGAMRFEENPPYKDQLLRWRCDAAVGMQDTKDGLPACDEAIQLYSPEDPTVVSILLQKLELYLMDGNVERAEEMLQRAQQLQPNDGKVNEYKRKMERIKRVGLRKNYYKILGVKKTADSSEIRRAYRHLAKTFHPDKLASQELSKEERAEADKRFRDINEAKEILLDDEKRARYDNGEDPTKPPGQDEHAFHGQPFNFPNEMFGQGGRFQQFYFHFD | not soluble
MEYNPFHNGHLYHLTSARELVKPDYTIAVMSGNFCQRGEPAVIDKFARAEIALRMGVDVVLELPVVFATQDAGGFAFGAVCVLDATGVVTDVVFGSESNDIEFLQRVARILYEQPDEYQKFLHEELKKGYSFPNARKYALMRYFSMKGWNEEEVLKLEKSNDILGVEYIHSALKIGSNIRFHTIKRVGAEEKDTSFRGRFSSATAIRNLMREKRWEEVRDSLPEDSFEILMREINEGRGPVFLENMGDFLLSFFRLKNMDFFEKIHGFSEGLEKRFHVCARQTGSYRDFLECVKAKRFTFSRIRRLALFSVFEVNKEFVEKSNTKGPQYIRILGFTEKGREILSLMRKKAKLPIVTNMSLYRKVLEKTDLPVDKQLFLEQIDLDVKATNFYSMFFPSVEQRCGERDFSIHPIFLRTEM | not soluble
MSLQYIVVTGGVISGLGKGTITSSIGHILKDSGFKVSSVKIDPYINYDAGTMNPYQHGEVFVLDDGSEVDLDLGNYERFMDINLSWKNNITTGKVYLEVIEKERHGDYLGKTVQIIPHITDEIKRRIRDVATSSKADFVLIEVGGTVGDIESMPFLEAVRQLKREENNVIFAHVTLVPEIGPTEEQKTKPTQHSVTALREIGIQPDIIFARSKNRLLEETKKRISLFTDVPEGGIISVYDVENVYLLPEVMVNEGFISYLSKLSGKEIKYRDSWKAYTENIKHPKDRVKIAIVGKYVDLHDAYISHKEAFSHVTGNTGIAVDIKWLDSEKVKDDQSMLSDVDAILIPGGFGYRGVEGKIAATRFALENHIPFLGICLGFQVAVIEIARDIIGLQNANSTEFDPATKYPVIDILPEQKGIKDLGGTMRLGSKKVLIKDGTLAKRIYGTDTIYERHRHRYEVNPNYISIIEKAGFVFSGTDEDGIRMEILEKKGDESFIATQYHSEFKSRPLNPSRVHLHLVQQALIYKKNKDIGEAVKLRSSVEGHHHHHH | soluble

— the DeepSol protein solubility set
